Patent US20190352376A1
Where “and” joins values, the source holds several entries; their conditions need not be identical. Identical values can stand only once. Like-named read-outs stand apart in the source and are kept apart here.

Assays:
[1] = target: T1, peptide-conjugate (Example 1; lactosyl-Ser-…-Cys coupled to KLH) (influenza virus)
[2] = target: peptide of Example 1 (influenza virus); assay: SPR, mAb captured on anti-mouse Fc, peptide injected
[3] = target: peptide of Example 1 (influenza virus); assay: SPR, mAb captured on anti-mouse Fc, peptide injected; average
[4] = target: hemagglutinin of H5N1 A/Indonesia/05/2005 (influenza virus H5N1 A/Indonesia/05/2005)
[5] = target: hemagglutinin of H5N1 A/Indonesia/05/2005 (influenza virus H5N1 A/Indonesia/05/2005); assay: dot blot, 4M urea; rHA (Prot. Sc.), dot 7
[6] = target: hemagglutinin of H5N1 A/Vietnam/1203/2004 (influenza virus H5N1 A/Vietnam/1203/2004); assay: dot blot, 4M urea; rHA (Prot. Sc.), dot 8
[7] = target: hemagglutinin of H7N7 A/Netherlands/219/2003 (influenza virus H7N7 A/Netherlands/219/2003); assay: dot blot, 4M urea; rHA (Prot. Sc.), dot 9
[8] = target: hemagglutinin of H9N2 A/Hong Kong/1073/1999 (influenza virus H9N2 A/Hong Kong/1073/1999); assay: dot blot, 4M urea; rHA (Prot. Sc.), dot 10
Non-related protein = assay: dot blot, 4M urea; negative control, dot 16
[9] = target: T1, peptide-conjugate (Example 1; …); remark: listed apart in the source

Binder | Kd [3] [nM] | signal intensity (arbitrary fluorescent units) [4] | signal intensity (arbitrary fluorescent units) [5] | signal intensity (arbitrary fluorescent units) [6] | signal intensity (arbitrary fluorescent units) [7] | signal intensity (arbitrary fluorescent units) [8] | signal intensity (arbitrary fluorescent units) (Non-related protein) | also measured
F211-9D1 (antibody, V domains shown) VL: DIVMSQSPSSLAVSVGEKVTMSCKSSQSLLNSRNQKNHLAWYQQKPGQSPKLLIYWASTRESGVPDRFSGDGSGTDFTLTISSVKAEDLAVYYCQQYYTYRTFGGGTKLEIK VH: DVQLQESGPGLVKPSQSLSLTCSVTGYSITSDYYWNWIRQFPGNKLEWMAYIGYDGSKNYNPSLKNRISITRDTSKNQFFLKLNSVTTDDTATYYCTRDRANWDDYFDYWGQGTTLTVSS |  |  |  |  |  |  |  | EC50 (read off the curve) [1]: 0.03 µg/mL
F211-11H12 (antibody, V domains shown) VL: DIVMSQSPSSLAVSVGEKVTMSCKSSQSLLNSRNQKNHLAWYQQKPGQSPKLLIYWASTRESGVPDRFTGDGSGTDFTLTISSVKAEDLAVYYCQQYYTYRTFGGGTKLEIK VH: DVQLQESGPGLVKPSQSLSLTCSVTGYSITSDYYWNWIRQFPGNKLEWMAYIGYDGTKNYNPSLKNRISITRDTSKNQFFLKLNSVTTDDTATYYCTRDRANWDDYFDYWGQGTTLTVSS | 0.465 |  |  |  |  |  |  | Kd [2]: 0.465 nM
F211-9D1 (antibody, V domains shown) VH: DVQLQESGPGLVKPSQSLSLTCSVTGYSITSDYYWNWIRQFPGNKLEWMAYIGYDGSKNYNPSLKNRISITRDTSKNQFFLKLNSVTTDDTATYYCTRDRANWDDYFDYWGQGTTLTVSS VL: DIVMSQSPSSLAVSVGEKVTMSCKSSQSLLNSRNQKNHLAWYQQKPGQSPKLLIYWASTRESGVPDRFSGDGSGTDFTLTISSVKAEDLAVYYCQQYYTYRTFGGGTKLEIK |  | 46700 | 10100 | 46800 | 425 | 3760 | 47 | 
F211-11H12 (antibody, V domains shown) VH: DVQLQESGPGLVKPSQSLSLTCSVTGYSITSDYYWNWIRQFPGNKLEWMAYIGYDGTKNYNPSLKNRISITRDTSKNQFFLKLNSVTTDDTATYYCTRDRANWDDYFDYWGQGTTLTVSS VL: DIVMSQSPSSLAVSVGEKVTMSCKSSQSLLNSRNQKNHLAWYQQKPGQSPKLLIYWASTRESGVPDRFTGDGSGTDFTLTISSVKAEDLAVYYCQQYYTYRTFGGGTKLEIK |  | 43100 | 22200 | 45900 | 488 | 3570 | 38 | 
CHO-11H12 (antibody, V domains shown) VL: DIVMSQSPSSLAVSVGEKVTMSCKSSQSLLNSRNQKNHLAWYQQKPGQSPKLLIYWASTRESGVPDRFTGDGSGTDFTLTISSVKAEDLAVYYCQQYYTYRTFGGGTKLEIK VH: DVQLQESGPGLVKPSQSLSLTCSVTGYSITSDYYWNWIRQFPGNKLEWMAYIGYDGTKNYNPSLKNRISITRDTSKNQFFLKLNSVTTDDTATYYCTRDRANWDDYFDYWGQGTTLTVSS | 0.639 |  |  |  |  |  |  | 
F211-10A9 (antibody, V domains shown) VL: DIVMTQSPSSLAMSVGQKVTMSCKSSQSLLNSDTQKNFLAWYQQKPGQSPKILVYFASTKESGVPDRFIGSGSGTDFTLTITSVQAEDLADYFCQQYYSIPLTFGAGTKLELK VH: QIQLQQSGPELVKPGAPVKISCKASGYTFTDYYIHWVNQRPGQGLEWIGYIYPGNGHTVYNQKFKVRATLTADNPSSTAYLQLNSLTSEDSGVYFCAYDLFNYWGQGTLVTVSA | 0.338 |  |  |  |  |  |  | EC50 (read off the curve) [9]: 0.05 µg/mL and 0.03 µg/mL; Kd [2]: 0.338 nM
F211-10A9 (antibody, V domains shown) VH: QIQLQQSGPELVKPGAPVKISCKASGYTFTDYYIHWVNQRPGQGLEWIGYIYPGNGHTVYNQKFKVRATLTADNPSSTAYLQLNSLTSEDSGVYFCAYDLFNYWGQGTLVTVSA VL: DIVMTQSPSSLAMSVGQKVTMSCKSSQSLLNSDTQKNFLAWYQQKPGQSPKILVYFASTKESGVPDRFIGSGSGTDFTLTITSVQAEDLADYFCQQYYSIPLTFGAGTKLELK |  | 28600 | 165 | 8260 | 42000 | 2970 | 34 | 
CHO-10A9 (antibody, V domains shown) VL: DIVMTQSPSSLAMSVGQKVTMSCKSSQSLLNSDTQKNFLAWYQQKPGQSPKILVYFASTKESGVPDRFIGSGSGTDFTLTITSVQAEDLADYFCQQYYSIPLTFGAGTKLELK VH: QIQLQQSGPELVKPGAPVKISCKASGYTFTDYYIHWVNQRPGQGLEWIGYIYPGNGHTVYNQKFKVRATLTADNPSSTAYLQLNSLTSEDSGVYFCAYDLFNYWGQGTLVTVSA | 0.365 |  |  |  |  |  |  | 
